Residues, ends and D or L forms follow the SMILES beside them. No end group written: not given here. *: point of attachment. X1 = CN(C)c1ccc2c(-c3cc(C(=O)*)ccc3C(=O)[O-])c3ccc(=[N+](C)C)cc-3oc2c1
Assays:
nLuc-PTHR1 = biological target: T1, nLuc-PTHR1 (Homo sapiens, UniProt Q03431); assay type: binding; settings: for koff / kon: HEK293
T1 sequence (Q03431 27-593): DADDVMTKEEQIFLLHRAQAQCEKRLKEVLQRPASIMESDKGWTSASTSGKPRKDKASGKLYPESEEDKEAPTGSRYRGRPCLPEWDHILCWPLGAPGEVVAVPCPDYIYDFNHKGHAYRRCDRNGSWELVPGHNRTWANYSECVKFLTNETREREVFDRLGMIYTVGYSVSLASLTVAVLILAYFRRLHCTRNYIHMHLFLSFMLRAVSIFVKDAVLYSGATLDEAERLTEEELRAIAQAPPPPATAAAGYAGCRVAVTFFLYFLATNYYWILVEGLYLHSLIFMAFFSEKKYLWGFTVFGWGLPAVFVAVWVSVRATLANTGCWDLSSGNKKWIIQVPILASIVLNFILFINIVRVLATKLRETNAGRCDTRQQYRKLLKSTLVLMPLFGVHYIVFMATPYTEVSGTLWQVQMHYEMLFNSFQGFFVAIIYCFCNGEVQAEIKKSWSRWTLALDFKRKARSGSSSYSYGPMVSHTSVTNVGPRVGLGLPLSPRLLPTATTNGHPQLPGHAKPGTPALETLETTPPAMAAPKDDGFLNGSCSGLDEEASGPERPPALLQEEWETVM

WT-PTHR1 = biological target: T2, WT-PTHR1 (Homo sapiens, UniProt Q03431); assay: GloSensor cAMP assay in GP2.3 cells; assay type: cell-based; settings: for Emax: HEK293, read-out: cAMP formation %Emax
T2 sequence (Q03431 27-593): T1 sequence (Q03431 27-593)

[1] = biological target: nLuc-PTHR1 (human parathyroid hormone receptor-1 with NanoLuc luciferase fused to the N-terminus) (human) (UniProt Q03431)
[2] = biological target: nLuc-PTHR1 (human parathyroid hormone receptor-1 with NanoLuc luciferase fused to the N-terminus) (human) (UniProt Q03431); assay: FRET or BRET
[3] = biological target: nLuc-ΔECD-PTHR1 (truncated PTHR1 lacking most of the extracellular domain, preceded by NanoLuc luciferase) (human) (UniProt Q03431); assay: FRET or BRET

Compound	cAMP formation (GloSensor): %Emax [1] [%]	cAMP formation (GloSensor): EC50 [1] [nM]	Kd [2] [nM]	koff [2] [s⁻¹]	kon [2] [M⁻¹ s⁻¹]	further results
CC[C@H](C)[C@H](NC(=O)[C@H](CCCCNC(=O)c1ccc(C(=O)[O-])c(-c2c3ccc(=[N+](C)C)cc-3oc3cc(N(C)C)ccc23)c1)NC(=O)[C@H](C)NC(=O)[C@@H](NC(=O)[C@H](Cc1c[nH]cn1)NC(=O)[C@@H](NC(=O)[C@H](CCC(=O)O)NC(=O)[C@H](C)NC(=O)[C@@H](NC(=O)[C@H](CC(C)C)NC(=O)[C@H](Cc1c[nH]cn1)NC(=O)[C@H](Cc1c[nH]cn1)NC(=O)[C@H](CC(C)C)NC(=O)[C@H](Cc1ccccc1)NC(=O)[C@H](Cc1ccccc1)NC(=O)[C@H](CCCNC(=N)N)NC(=O)[C@H](CCCNC(=N)N)NC(=O)[C@H](CCCNC(=N)N)NC(=O)[C@H](CC(C)C)NC(=O)[C@H](CC(=O)O)NC(=O)[C@H](CCC(N)=O)NC(=O)[C@@H](NC(=O)[C@H](CO)NC(=O)[C@H](CCCCN)NC(=O)CNC(=O)[C@H](CC(C)C)NC(=O)[C@H](CC(N)=O)NC(=O)[C@H](Cc1c[nH]cn1)NC(=O)[C@H](CCSC)NC(=O)[C@H](CC(C)C)NC(=O)[C@H](CCC(N)=O)NC(=O)[C@@H](NC(=O)[C@H](CCC(=O)O)NC(=O)[C@H](CO)NC(=O)[C@@H](NC(=O)[C@@H](N)CO)C(C)C)[C@@H](C)CC)[C@@H](C)CC)[C@@H](C)CC)[C@@H](C)CC)[C@@H](C)O)C(N)=O [PTH[1-12] PTHrP[13-36]] (H-SVSEIQLMHNLGKSIQDLRRRFFLHHLIAEIHTAK(X1)I-NH2; N-terminus assumed)						koff (nLuc-PTHR1): 0.0035 ± 0.001 s⁻¹; kon (nLuc-PTHR1): 800000 ± 50000 M⁻¹ s⁻¹; Emax (WT-PTHR1): 107 ± 5%
PTH(3-34): N-terminally truncated analogue of PTH(1-34) (SEIQLMHNLGKHLNSMERVEWLRKKLQDVHNF-NH2; UniProt P01270 34-65, looked up, fragment) [reference compound]						agonist activity, cAMP production via the PTHR1 (in words) (WT-PTHR1): only minimal activity
PTH[1-14] PTHrP[15-36] hybrid, Lys35(TMR) (peptide)	106	0.89	6.1	0.0022	350000	
CC[C@H](C)[C@H](NC(=O)[C@H](CCCCNC(=O)c1ccc(C(=O)[O-])c(-c2c3ccc(=[N+](C)C)cc-3oc3cc(N(C)C)ccc23)c1)NC(=O)[C@H](C)NC(=O)[C@@H](NC(=O)[C@H](Cc1c[nH]cn1)NC(=O)[C@@H](NC(=O)[C@H](CCC(=O)O)NC(=O)[C@H](C)NC(=O)[C@@H](NC(=O)[C@H](CC(C)C)NC(=O)[C@H](Cc1c[nH]cn1)NC(=O)[C@H](Cc1c[nH]cn1)NC(=O)[C@H](CC(C)C)NC(=O)[C@H](Cc1ccccc1)NC(=O)[C@H](Cc1ccccc1)NC(=O)[C@H](CCCNC(=N)N)NC(=O)[C@H](CCCNC(=N)N)NC(=O)[C@H](CCCNC(=N)N)NC(=O)[C@H](CC(C)C)NC(=O)[C@H](CC(=O)O)NC(=O)[C@H](CC(N)=O)NC(=O)[C@H](CC(C)C)NC(=O)[C@H](Cc1c[nH]cn1)NC(=O)[C@H](CCCCN)NC(=O)CNC(=O)[C@H](CC(C)C)NC(=O)[C@H](CC(N)=O)NC(=O)[C@H](Cc1c[nH]cn1)NC(=O)[C@H](CCSC)NC(=O)[C@H](CC(C)C)NC(=O)[C@H](CCC(N)=O)NC(=O)[C@@H](NC(=O)[C@H](CCC(=O)O)NC(=O)[C@H](CO)NC(=O)[C@@H](NC(=O)[C@@H](N)CO)C(C)C)[C@@H](C)CC)[C@@H](C)CC)[C@@H](C)CC)[C@@H](C)O)C(N)=O [PTH[1-16] PTHrP[17-36]] (H-SVSEIQLMHNLGKHLNDLRRRFFLHHLIAEIHTAK(X1)I-NH2; N-terminus assumed)						koff (nLuc-PTHR1): 0.0017 ± 0.001 s⁻¹; kon (nLuc-PTHR1): 530000 ± 30000 M⁻¹ s⁻¹; Emax (WT-PTHR1): 103 ± 4%
PTHrP(1-36): N-terminal fragment of parathyroid hormone-related protein, literature comparator [reference compound]						KD with Ile5 relative to His5 at position 5 (fold lower) (nLuc-PTHR1; pH 7.5, K35^TMR-labeled peptides): ~ 5 fold
PTH(1-34)K35^TMR, I5H variant (peptide)			104	0.071	440000	
AVAEIQLMHQRAKWIQDARRRAFLHKLIAEIHTA-NH2 [LA-PTH, reference compound]						difference in KD between PTH and LA-PTH (nLuc-PTHR1; direct-binding assay, K35^TMR peptides): ~ 5 fold
PTH[1-16] PTHrP[17-36] hybrid, Lys35(TMR) (peptide)	103	0.79	3.4	0.0017	530000	
PTH(2-34): N-terminally truncated analogue of PTH(1-34) (VSEIQLMHNLGKHLNSMERVEWLRKKLQDVHNF-NH2; UniProt P01270 33-65, looked up, fragment) [reference compound]						EC50 for cAMP production relative to EC50 of PTH(1-34) (fold higher) (WT-PTHR1; estimated for the D-peptide): ~ 10 fold
PTH(2-34)K35^TMR (peptide)			21	0.0053	250000	
LA-PTH (long-acting PTH), unlabeled (peptide)						IC50 [2]: 4.1 nM
PTHrP[1-12] PTH[13-34] hybrid, Lys35(TMR) (peptide)		0.15	49	0.029	590000	
PTHrP[1-16] PTH[17-34] hybrid, Lys35(TMR) (peptide)	105	0.48	95	0.041	430000	
PTH[1-12] PTHrP[13-36] hybrid, Lys35(TMR) (peptide)	107	0.55	4.4	0.0035		

Now from value to compound, other results behind:

cAMP formation (GloSensor): %Emax [1] [%]	cAMP formation (GloSensor): EC50 [1] [nM]	Kd [2] [nM]	koff [2] [s⁻¹]	kon [2] [M⁻¹ s⁻¹]	Compound	further results
97	0.39	63	0.043	680000	PTHrP[1-14] PTH[15-34] hybrid, Lys35(TMR) (peptide)	
		2.4	0.00056	230000	LA-PTH(1-34)-35K^TMR (peptide)	Kd [3]: 72 nM; koff [3]: 0.0097 s⁻¹; kon [3]: 130000 M⁻¹ s⁻¹
99	0.16				PTHrP[1-18] PTH[19-34] hybrid, Lys35(TMR) (peptide)	
		310	0.024	77000	M-PTH(1-14)-15K^TMR (peptide)	Kd [3]: 106 nM; koff [3]: 0.018 s⁻¹; kon [3]: 180000 M⁻¹ s⁻¹
		11	0.0043		PTH(1-34)-N33K^TMR (peptide)	
		5			PTHrP(1-34)-His5-Ile-K35^TMR (peptide)	
106	0.99	26	0.0079	320000	PTH[1-18] PTHrP[19-36] hybrid, Lys35(TMR) (peptide)	
		27	0.0094	340000	PTH(3-34)K35^TMR (peptide)	
